# Data from the supplement of paper PMC10724198.
# ± gives the standard deviation of the averaged measurements.
# Tested on: Saccharomyces cerevisiae
# Assay: protein stability index of tFT-peptide fusion (C-terminal peptide) (PSI (0-1 scale)); higher = more stable (slower turnover)
# Settings: genetic background: wild type; temperature: 30 C
# Description: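 Multiplexed protein stability (MPS) profiling in S. cerevisiae. Random 12-aa peptides (tFT-X12 library) are fused to the C-terminus of a sfGFP-mCherry tandem fluorescent timer, after mCherry and a GGGS linker. Cells are FACS-sorted into 8 mCherry/sfGFP bins and deep-sequenced. The protein stability index (PSI) is the read-weighted bin average, scaled from 0 (unstable) to 1 (stable). Only peptides with >10 reads are reported; cells were grown at 30 °C in SC-His with glucose.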
# 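Note: PSI is a weighted mean of sequencing reads over stability bins, variants kept only with over 10 reads, mCherry proximal and sfGFP distal, peptide attached via GGGS linker.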
row,Sequence,protein stability index
1,ATHSMSYRGSTK,0.662 ± 0.081
2,ATKKRKKKNKQT,0.756 ± 0.11
3,ATLDVTALRQES,0.636 ± 0.011
4,ATPVPTPRPAAP,0.729 ± 0.048
5,ATPYGLTPNYSG,0.676 ± 0.15
6,ATRRYQYSPHKV,0.651 ± 0.026
7,ATTPPSSLFGPL,0.768 ± 0.072
8,ATVKRAVPPVFR,0.7 ± 0.041
9,AVARYPPHCSHN,0.768 ± 0.13
10,AVCVSVCGRLLV,0.5492 ± 0.0023
11,AVGWQRQTEQRR,0.684 ± 0.088
12,AVLGGLIYECVV,0.634 ± 0.018
13,AVLGRRSQHASA,0.6832 ± 0.0036
14,AVNADMHDKKIA,0.7 ± 0.036
15,AVPAPPPTLPPI,0.685 ± 0.051
16,AVPSPVTLPTTS,0.641 ± 0.066
17,AVQTTGRAGRVG,0.683 ± 0.056
18,AVVRTVVCLNVL,0.573 ± 0.013
19,AVVVCGGGGWWA,0.687 ± 0.068
20,AVVWMGAGVGGV,0.718 ± 0.03
21,AVWLGGGGRFVG,0.78 ± 0.034
22,AWAVGPTICRRG,0.7219 ± 0.0021
23,AWLPVLPLVSFF,0.621 ± 0.062
24,AWLTTSGLVGSD,0.725 ± 0.029
25,AYYRPQNLSPVT,0.675 ± 0.083
26,CAADYRRHLQRP,0.669 ± 0.026

row,Sequence,protein stability index
1,CAAVPLLASDVR,0.688 ± 0.011
2,CAAYIYLGGSFF,0.707 ± 0.033
3,CACIPLHFAPSL,0.683 ± 0.04
4,CANFIGAVPGSV,0.686 ± 0.011
5,CAQLVLDNHTGP,0.69 ± 0.079
6,CAVLGGGVVWGA,0.668 ± 0.028
7,CAVPAVIDLDKF,0.65 ± 0.087
8,CCADPWRIARPW,0.729 ± 0.042
9,CCCGSGFFLLKV,0.525 ± 0.021
10,CCFPPLSPPASP,0.656 ± 0.072
11,CCGHEFEIYNWV,0.786 ± 0.1
12,CCILTHFSSCET,0.679 ± 0.011
13,CCTPSFANVRDG,0.6998 ± 0.0027
14,CECAEGRGKDRS,0.591 ± 0.0069
15,CELCVCKHGGKG,0.702 ± 0.013
16,CFASTFVSPILH,0.694 ± 0.03
17,CFFVRLSSFYCS,0.63 ± 0.0089
18,CFLFSFSLFPFV,0.618 ± 0.066
19,CFPALSGVQGGM,0.706 ± 0.082
20,CFPPLPPPPPPS,0.736 ± 0.0077
21,CFPRVLFPVAAP,0.608 ± 0.049
22,CFPSSVPFPSLL,0.778 ± 0.058
23,CFVLPWHVPFGF,0.715 ± 0.021
24,CGCGCPSRVLVS,0.643 ± 0.061
25,CGCSLPGFCFLA,0.53 ± 0.022
26,CGDAGSVGCVYV,0.699 ± 0.055

row,Sequence,protein stability index
1,CGEGGVCRLVFS,0.682 ± 0.0074
2,CGGAADWRDWGW,0.775 ± 0.086
3,CGGFAEGGGCRM,0.697 ± 0.028
4,CGLFFSCVGVSG,0.6411 ± 0.005
5,CGQGRSVPFRSV,0.658 ± 0.0094
6,CGQKREFKEGGG,0.634 ± 0.0059
7,CGWLTCSAGFCA,0.726 ± 0.11
8,CGWSQLCRDSES,0.675 ± 0.042
9,CGYVSGGWAGNV,0.691 ± 0.025
10,CHTDLPLLGTSR,0.681 ± 0.022
11,CHTESKLKRKKW,0.645 ± 0.028
12,CIPCLLAYPETC,0.655 ± 0.14
13,CIRPPPPSPKLM,0.694 ± 0.0096
14,CISIRKEERRKI,0.7012 ± 0.0019
15,CKCRRYYTLNGG,0.656 ± 0.025
16,CKFPSLCVLSSV,0.654 ± 0.07
17,CKHPAWFQPRVG,0.618 ± 0.044
18,CKIGMFIRWIGG,0.571 ± 0.04
19,CKLDVMSRSFVG,0.664 ± 0.0089
20,CKNRLKMKQESK,0.658 ± 0.028
21,CLAFDLGLSPLF,0.755 ± 0.099
22,CLEGCTIHTSGE,0.652 ± 0.015
23,CLFWWDASTILP,0.68 ± 0.13
24,CLGGRRVCRCKG,0.631 ± 0.054
25,CLGVCAFSFCCN,0.624 ± 0.012
26,CLLPGSSYSFTS,0.712 ± 0.045

row,Sequence,protein stability index
1,CLMHTENCIRKA,0.674 ± 0.032
2,CLRDTLTCLFFF,0.5953 ± 0.0044
3,CLRGLLVMLYQR,0.54 ± 0.01
4,CLRRGGAGEGAS,0.687 ± 0.0037
5,CLRWSRVGTVVV,0.564 ± 0.025
6,CLSDPDVVRVLS,0.6914 ± 0.0018
7,CLSLLWRVLDLW,0.688 ± 0.065
8,CLWGQWAVGCMG,0.6169 ± 0.0019
9,CNGPRLFDKSPI,0.695 ± 0.017
10,CNRVSLSNVRLF,0.6675 ± 0.00083
11,CPFPLPPPTLPP,0.657 ± 0.01
12,CPGVLVLMCGRP,0.589 ± 0.009
13,CPLLSCAAFLSS,0.719 ± 0.025
14,CPLLSPTPPLRP,0.703 ± 0.019
15,CPPLEWSLRYPV,0.722 ± 0.017
16,CPPRIAFPCGIQ,0.649 ± 0.094
17,CPPRPLHSPLPP,0.694 ± 0.022
18,CRGGLGASCRGR,0.67 ± 0.008
19,CRGGPLGYGCGS,0.827 ± 0.17
20,CRGRGGCPMSWR,0.689 ± 0.1
21,CRGRSGMCNLET,0.751 ± 0.04
22,CRGWVRVAGLRA,0.604 ± 0.085
23,CRKIKFIQKINK,0.623 ± 0.046
24,CRLRLVYCVKYD,0.621 ± 0.013
25,CRMPLFGSYPLG,0.683 ± 0.022
26,CRSNISDLFSSV,0.7793 ± 0.0063

row,Sequence,protein stability index
1,CSEDMVGSIVVV,0.651 ± 0.041
2,CSFFGPGFICSL,0.666 ± 0.013
3,CSLFIRCAPFCG,0.705 ± 0.017
4,CSLFRCSKVVLG,0.672 ± 0.037
5,CSLGLGGRVAAL,0.697 ± 0.048
6,CSLSYFSAHCVP,0.665 ± 0.044
7,CSLTVGYNRHDV,0.635 ± 0.00084
8,CSLVWPGSMSVD,0.738 ± 0.033
9,CSNKIILMTRNN,0.564 ± 0.041
10,CSPLNFGNGLLL,0.584 ± 0.013
11,CSRTIGGFLWDQ,0.6994 ± 0.0054
12,CSSLPPCPYSLP,0.654 ± 0.12
13,CSSVRRRSWCFS,0.846 ± 0.16
14,CSTIRDFTIYPP,0.694 ± 0.11
15,CSVGLPPLPPLH,0.704 ± 0.076
16,CSVVMGFYCRGA,0.694 ± 0.038
17,CTGISVFYLFGD,0.66 ± 0.033
18,CTLSQGLSGSRI,0.6609 ± 0.0024
19,CTLWCIPGCNMR,0.666 ± 0.066
20,CTPVLLLRVLGN,0.58 ± 0.036
21,CTSCHVWRLSRF,0.765 ± 0.034
22,CVCVCHPPRRFL,0.719 ± 0.015
23,CVGLIGVINGGL,0.558 ± 0.0081
24,CVGPSVERGFWG,0.689 ± 0.031
25,CVGTLSPKTVRT,0.697 ± 0.024
26,CVLGVGVPAGGG,0.634 ± 0.032

row,Sequence,protein stability index
1,CVPPSFRPSLFD,0.75 ± 0.015
2,CVREDSRPFPAS,0.76 ± 0.044
3,CVSRRRGGEIGG,0.655 ± 0.044
4,CVSSALRVPGRE,0.699 ± 0.027
5,CVTFGGCGVWYV,0.624 ± 0.018
6,CVWFGVGRCCGR,0.648 ± 0.043
7,CVWHELTYGSLY,0.66 ± 0.062
8,CWASTFGLGFLP,0.757 ± 0.0022
9,CWCRVGSSGCVR,0.668 ± 0.039
10,CWGAGPRLVRVW,0.4998 ± 0.00039
11,CWLGSIAGLRGR,0.7399 ± 0.0064
12,CWPLITTNCTVP,0.7081 ± 0.0054
13,CYRWVLGVDARV,0.649 ± 0.012
14,DAMSTRSRLLTR,0.7109 ± 0.0051
15,DASCAPAQYLPI,0.673 ± 0.025
16,DASGGKKVSRGT,0.571
17,DCCTGGKCLEVW,0.603 ± 0.047
18,DCMSSVFQSPPG,0.693 ± 0.01
19,DCSCCGGVSCVV,0.639 ± 0.014
20,DCVWGLERVLLL,0.756 ± 0.016
21,DCWAGWGLCGGG,0.723 ± 0.042
22,DDIGGRKLCVRG,0.6692 ± 0.0028
23,DEKKMEKQTNRT,0.638 ± 0.045
24,DENEKIKKVKVK,0.754 ± 0.02
25,DERVSAQDFLEG,0.6873 ± 0.003
